Data from WO2002045743A2.

Legend:
[1] = target: MH2 peptide (Hepatitis C virus); experiment: peptide EIA (Table 4)
[2] = target: MH2 peptide (Hepatitis C virus); experiment: peptide EIA, Nunc-Immuno and CovaLab plates
[3] = target: MH2 peptide (Hepatitis C virus); experiment: IAsys biosensor, BSA-HVR1 peptide conjugate

Binder | EIA Sample/Cutoff ratio (S/CO) [1] [S/CO] | EIA Sample/Cutoff ratio (S/CO) [2] [S/CO] | Kd [3] [nM]
mAb 2P24 (antibody) chain 1: EFQLQQSGAELVRPGPLVTLSCKASGFNIKDYYMNWVKQRPEQGLEWIGRIDPKNGNALYDPKFQDKARITADTSSNTAYLQLNSLTSEATAVYYCSSGWLDYWGQGTSLAVYS chain 2: DIVMTQSPASLAVFRGQRATISYRASKSVSTSGYSYMHWNQQKPGQPPRLLIYLVSNLESGVPARFSGSGSGTDFTLNIHPVEEEDAATYYCQHIRELTAFGGGTK | 24.9 | 24.9 | 5.85
mAb 15H4 (antibody) chain 1: QVQLQQSGAELARPGASVKLSCKASGYTFTRYWMQWVKQKPGQGLEWIGAIYCGDGDTRFTQKFKGKATLTADKSSSTAYMQLSNLASEDSAVYYCVIYGNYYDAMDYWGQGTSVTVSS chain 2: DIVMTQAPLSMPVSLGDQASISGRSSQSLVHSNGNTYLHWYLQKPGQSPKLLIHKVSKRFSGVPDRFSGSGSGTDFTLKIRRVEAEDLGVYFCSQNTHVPFTFGGGTK | 13.6 | 18.1 | 21.5
